T1: recombinant yeast MDH1, fluorescently labeled (yeast (Saccharomyces cerevisiae), UniProt P17505 18-334, labeled with Protein Labeling Kit RED-NHS 2nd Generation (NanoTemper))
T1 chain: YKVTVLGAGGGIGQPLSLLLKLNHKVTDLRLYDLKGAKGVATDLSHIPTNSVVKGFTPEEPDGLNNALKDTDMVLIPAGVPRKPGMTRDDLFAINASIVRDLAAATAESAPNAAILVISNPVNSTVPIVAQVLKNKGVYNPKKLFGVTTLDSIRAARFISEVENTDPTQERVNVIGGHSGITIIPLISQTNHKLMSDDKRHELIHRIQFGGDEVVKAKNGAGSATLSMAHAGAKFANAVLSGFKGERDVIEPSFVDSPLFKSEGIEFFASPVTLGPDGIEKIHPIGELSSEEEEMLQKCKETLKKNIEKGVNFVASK

T2: recombinant yeast CIT1 (yeast (Saccharomyces cerevisiae), UniProt P00890 38-479)
T2 construct: citrate synthase CIT1, mitochondrial, yeast (Saccharomyces cerevisiae); also called recombinant CIT1; source: recombinant; produced according to the Supplementary Methods
T2 sequence (looked up): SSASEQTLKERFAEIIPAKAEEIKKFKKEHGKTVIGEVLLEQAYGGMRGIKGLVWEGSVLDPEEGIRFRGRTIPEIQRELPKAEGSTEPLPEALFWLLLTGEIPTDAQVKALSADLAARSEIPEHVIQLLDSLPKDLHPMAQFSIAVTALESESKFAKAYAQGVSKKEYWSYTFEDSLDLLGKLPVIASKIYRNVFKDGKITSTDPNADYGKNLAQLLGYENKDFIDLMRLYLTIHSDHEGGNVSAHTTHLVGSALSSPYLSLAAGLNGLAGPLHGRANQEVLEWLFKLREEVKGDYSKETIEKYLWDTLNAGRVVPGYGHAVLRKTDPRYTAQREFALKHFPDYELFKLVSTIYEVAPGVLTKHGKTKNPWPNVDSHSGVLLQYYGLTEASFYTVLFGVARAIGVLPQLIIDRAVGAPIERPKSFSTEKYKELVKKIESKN

B1: recombinant yeast CIT1 (enzyme)
chain: T2 sequence (looked up)
B2: recombinant yeast MDH1, fluorescently labeled (enzyme, yeast (Saccharomyces cerevisiae), UniProt P17505 18-334, looked up)
chain: T1 chain
modifications: labeled with Protein Labeling Kit RED-NHS 2nd Generation (NanoTemper)
notes: malate dehydrogenase MDH1, mitochondrial, yeast (Saccharomyces cerevisiae); also called recombinant MDH1; labeled MDH1; source: recombinant; produced according to the Supplementary Methods

Legend:
[1] = target: T1, recombinant yeast MDH1, fluorescently …; test: MST; 10 mM malate
[2] = target: T1, recombinant yeast MDH1, fluorescently …; test: MST; control (no metabolite)
[3] = target: T1, recombinant yeast MDH1, fluorescently …; test: MST; pH 6.8
[4] = target: T1, recombinant yeast MDH1, fluorescently …; test: MST; 10 mM fumarate
recombinant yeast CIT1 [5] = target: T2, recombinant yeast CIT1; test: MST; labeled MDH1 as target, CIT1 titrated (two-fold dilutions of 80 μM, 16 concentrations), Monolith NT.115, room temperature; buffer pH 6.4; settings: both partners purified
recombinant yeast CIT1 [6] = target: T2, recombinant yeast CIT1; test: MST; labeled MDH1 as target, CIT1 titrated (two-fold dilutions of 80 μM, 16 concentrations), Monolith NT.115, room temperature; buffer pH 6.0; settings: both partners purified
recombinant yeast CIT1 [7] = target: T2, recombinant yeast CIT1; test: MST; labeled MDH1 as target, CIT1 titrated (two-fold dilutions of 80 μM, 16 concentrations), Monolith NT.115, room temperature; buffer pH 7.2; settings: both partners purified

Row | Binder | Kd [1] [nM] | Kd [2] [nM] | Kd [3] [nM] | Kd [4] [nM] | Kd (recombinant yeast CIT1 [5]) [nM] | Kd (recombinant yeast CIT1 [6]) [nM] | Kd (recombinant yeast CIT1 [7]) [nM]
1 | B1 | 367 | 6070 | 2720 | 288 |  |  | 
2 | B2 |  |  |  |  | 223 | 33 | 3480
